From the supplement of paper PMC9112550, “Optimization of the antimicrobial peptide Bac7 by deep mutational scanning” (BMC Biology, 2022)

Test system: Escherichia coli TOP10
Test: shrunken log2 fold change of peptide-encoding DNA abundance (4.5 h post-induction vs induction); higher = less antimicrobial activity (less host growth inhibition)
Details: time post-induction: 4.5 h; library: site-saturation at positions 5, 18, 19, 20
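Further: peptides expressed intracellularly from a pBAD plasmid library in pooled LB shake-flask culture, induced with 0.3% L-arabinose, DNA abundance read by NGS, three biological replicates, DESeq2 with apeglm shrinkage.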

Sequence	shrunken log2 fold change
RRIRGRPPRLPRPRPRPKFNPRP	0.353
RRIRWRPPRLPRPRPRPDPQPRP	-0.00387
RRIRWRPPRLPRPRPRPASQPRP	0.271
RRIRRRPPRLPRPRPRPGVIPRP	-0.0223
RRIRKRPPRLPRPRPRPIMSPRP	-0.00757
RRIRLRPPRLPRPRPRPRMDPRP	-0.106
RRIRLRPPRLPRPRPRPLFNPRP	-0.468
RRIRARPPRLPRPRPRPCWMPRP	-0.102
RRIRERPPRLPRPRPRPPWSPRP	-0.0222
RRIRKRPPRLPRPRPRPTMEPRP	0.204
RRIRVRPPRLPRPRPRPRTYPRP	-0.309
RRIRRRPPRLPRPRPRPWITPRP	-0.0428
RRIRNRPPRLPRPRPRPYWWPRP	0.0224
RRIRPRPPRLPRPRPRPVQTPRP	0.00686
RRIRLRPPRLPRPRPRPWRLPRP	0.0799
RRIRHRPPRLPRPRPRPMLSPRP	-0.0786
RRIRMRPPRLPRPRPRPAMMPRP	0.59
RRIRSRPPRLPRPRPRPVCNPRP	0.413
RRIRVRPPRLPRPRPRPSSFPRP	-0.423
RRIRWRPPRLPRPRPRPVTGPRP	0.183
RRIRTRPPRLPRPRPRPSFSPRP	-0.262
RRIRRRPPRLPRPRPRPTNCPRP	-0.197
RRIRIRPPRLPRPRPRPAGCPRP	-0.0691
RRIRVRPPRLPRPRPRPKSLPRP	-0.0854
RRIRRRPPRLPRPRPRPDKTPRP	0.119

Sequence	shrunken log2 fold change
RRIRPRPPRLPRPRPRPFVLPRP	-0.352
RRIRWRPPRLPRPRPRPLARPRP	0.432
RRIRVRPPRLPRPRPRPCHPPRP	-0.0124
RRIRLRPPRLPRPRPRPVLWPRP	0.389
RRIRHRPPRLPRPRPRPVRHPRP	0.251
RRIRPRPPRLPRPRPRPDQLPRP	-0.0341
RRIRWRPPRLPRPRPRPAETPRP	0.0775
RRIRARPPRLPRPRPRPHWNPRP	-0.0187
RRIRRRPPRLPRPRPRPRKEPRP	0.4
RRIRLRPPRLPRPRPRPLENPRP	0.0938
RRIRHRPPRLPRPRPRPEFNPRP	0.0664
RRIRIRPPRLPRPRPRPHYNPRP	-1.03
RRIRIRPPRLPRPRPRPFCGPRP	-0.228
RRIRGRPPRLPRPRPRPDLSPRP	0.121
RRIRDRPPRLPRPRPRPHSEPRP	0.00449
RRIRDRPPRLPRPRPRPWFYPRP	-0.0139
RRIRFRPPRLPRPRPRPASNPRP	-0.479
RRIRGRPPRLPRPRPRPYYVPRP	-0.0871
RRIRGRPPRLPRPRPRPQESPRP	-0.0432
RRIRIRPPRLPRPRPRPGVTPRP	-0.0211
RRIRSRPPRLPRPRPRPDIVPRP	0.252
RRIRLRPPRLPRPRPRPMITPRP	-0.07
RRIRPRPPRLPRPRPRPGRYPRP	0.37
RRIRFRPPRLPRPRPRPKMDPRP	-0.0752
RRIRMRPPRLPRPRPRPQEHPRP	0.0123

Sequence	shrunken log2 fold change
RRIRFRPPRLPRPRPRPCVIPRP	0.0397
RRIRHRPPRLPRPRPRPEHNPRP	-0.0734
RRIRDRPPRLPRPRPRPRKGPRP	0.0785
RRIRHRPPRLPRPRPRPTHEPRP	0.0424
RRIRMRPPRLPRPRPRPWRLPRP	-0.0743
RRIRVRPPRLPRPRPRPTFYPRP	-0.145
RRIRSRPPRLPRPRPRPPHAPRP	0.629
RRIRFRPPRLPRPRPRPGSLPRP	-0.479
RRIRFRPPRLPRPRPRPYVVPRP	-0.252
RRIRMRPPRLPRPRPRPNMTPRP	0.188
RRIRDRPPRLPRPRPRPDKQPRP	-0.129
RRIRFRPPRLPRPRPRPHDNPRP	-0.392
RRIRHRPPRLPRPRPRPWHWPRP	-0.135
RRIRKRPPRLPRPRPRPNFPPRP	0.117
RRIRDRPPRLPRPRPRPNMPPRP	-0.497
RRIRVRPPRLPRPRPRPPGVPRP	0.216
RRIRVRPPRLPRPRPRPKKTPRP	-0.0604
RRIRARPPRLPRPRPRPMWGPRP	0.115
RRIRGRPPRLPRPRPRPHDRPRP	-0.0826
RRIRFRPPRLPRPRPRPDEYPRP	-0.014
RRIRKRPPRLPRPRPRPMRHPRP	0.0303
RRIRCRPPRLPRPRPRPGQNPRP	0.261
RRIRMRPPRLPRPRPRPSTCPRP	-0.0128
RRIRFRPPRLPRPRPRPTEIPRP	-0.413
RRIRCRPPRLPRPRPRPQCIPRP	-0.458

Sequence	shrunken log2 fold change
RRIRRRPPRLPRPRPRPPPEPRP	1.37
RRIRVRPPRLPRPRPRPCCNPRP	-0.426
RRIRWRPPRLPRPRPRPYWNPRP	-0.645
RRIRPRPPRLPRPRPRPPDEPRP	0.444
RRIRKRPPRLPRPRPRPWVLPRP	0.0941
RRIRRRPPRLPRPRPRPNEAPRP	0.271
RRIRLRPPRLPRPRPRPKNKPRP	-0.291
RRIRFRPPRLPRPRPRPYFTPRP	-1.09
RRIRLRPPRLPRPRPRPCPYPRP	0.0232
RRIRPRPPRLPRPRPRPEIAPRP	0.189
RRIRIRPPRLPRPRPRPRNHPRP	-0.354
RRIRKRPPRLPRPRPRPKCWPRP	0.382
RRIRHRPPRLPRPRPRPWIHPRP	-0.197
RRIRSRPPRLPRPRPRPCDAPRP	-0.122
RRIRNRPPRLPRPRPRPYVYPRP	-1.31
RRIRPRPPRLPRPRPRPQYTPRP	-0.813
RRIRVRPPRLPRPRPRPVEMPRP	-0.0393
RRIRNRPPRLPRPRPRPTGSPRP	0.1
RRIRDRPPRLPRPRPRPNQHPRP	-0.283
RRIRLRPPRLPRPRPRPHCSPRP	-0.747
RRIRRRPPRLPRPRPRPMHAPRP	1.49
RRIRKRPPRLPRPRPRPTEGPRP	0.869
RRIRSRPPRLPRPRPRPGMKPRP	-0.0636
RRIRKRPPRLPRPRPRPHGHPRP	-0.248
RRIRRRPPRLPRPRPRPFKYPRP	-0.252

Sequence	shrunken log2 fold change
RRIRIRPPRLPRPRPRPNIMPRP	-0.947
RRIRNRPPRLPRPRPRPNFGPRP	-0.0224
RRIRNRPPRLPRPRPRPTKTPRP	0.0911
RRIRCRPPRLPRPRPRPVVEPRP	0.0964
RRIRQRPPRLPRPRPRPHITPRP	-1.1
RRIRNRPPRLPRPRPRPQYPPRP	-0.571
RRIRCRPPRLPRPRPRPCCCPRP	-0.224
RRIRVRPPRLPRPRPRPGMDPRP	0.225
RRIRGRPPRLPRPRPRPTQVPRP	0.353
RRIRKRPPRLPRPRPRPLDTPRP	0.000649
RRIRTRPPRLPRPRPRPLNEPRP	-0.0228
RRIRHRPPRLPRPRPRPSGYPRP	-0.0698
RRIRMRPPRLPRPRPRPCTEPRP	-0.0649
RRIRYRPPRLPRPRPRPMTLPRP	-0.0394
RRIRLRPPRLPRPRPRPKSFPRP	-0.0686
RRIRDRPPRLPRPRPRPVIMPRP	-0.381
RRIRMRPPRLPRPRPRPASEPRP	0.145
RRIRTRPPRLPRPRPRPNPAPRP	0.147
RRIRWRPPRLPRPRPRPPWDPRP	0.131
RRIRARPPRLPRPRPRPPPQPRP	1.31
RRIRIRPPRLPRPRPRPCAQPRP	-0.485
RRIRLRPPRLPRPRPRPFVTPRP	-0.303
RRIRMRPPRLPRPRPRPDQTPRP	0.0101
RRIRTRPPRLPRPRPRPTEAPRP	0.0502
RRIRLRPPRLPRPRPRPHHLPRP	-0.24

Sequence	shrunken log2 fold change
RRIRFRPPRLPRPRPRPPRKPRP	0.827
RRIRARPPRLPRPRPRPETQPRP	1.57
RRIRMRPPRLPRPRPRPIFMPRP	-0.0298
RRIRARPPRLPRPRPRPLHAPRP	0.554
RRIRQRPPRLPRPRPRPAHRPRP	0.151
RRIRYRPPRLPRPRPRPMNFPRP	-0.0135
RRIRGRPPRLPRPRPRPPTCPRP	0.172
RRIRTRPPRLPRPRPRPSAWPRP	0.0388
RRIRFRPPRLPRPRPRPLCKPRP	0.0214
RRIRMRPPRLPRPRPRPWIGPRP	-0.0941
RRIRHRPPRLPRPRPRPMWFPRP	-0.218
RRIRKRPPRLPRPRPRPLFVPRP	0.153
RRIRSRPPRLPRPRPRPGMHPRP	-0.0823
RRIRARPPRLPRPRPRPGNPPRP	0.167
RRIRIRPPRLPRPRPRPLMSPRP	-0.372
RRIRHRPPRLPRPRPRPVYEPRP	0.015
RRIRLRPPRLPRPRPRPMYYPRP	-0.0423
RRIRRRPPRLPRPRPRPSLKPRP	0.108
RRIRERPPRLPRPRPRPCNIPRP	-0.0405
RRIRERPPRLPRPRPRPVVMPRP	0.116
RRIRYRPPRLPRPRPRPMMIPRP	-0.00702
RRIRVRPPRLPRPRPRPSGWPRP	0.16
RRIRVRPPRLPRPRPRPKMQPRP	0.0937
RRIRMRPPRLPRPRPRPKEDPRP	1.82
RRIRYRPPRLPRPRPRPGEVPRP	-0.0129
